Measurements taken from paper PMC8695127 (2021).

T1: SARS-CoV-2 spike (S) protein peptide on HLA-DPA1*01:03 / HLA-DPB1*04:01 (human)
T1 peptide: CTFEYVSQPFLMDLE

T2: SARS-CoV-2 spike (S) protein peptide on HLA-DPA1*01:03 / HLA-DPB1*04:01 (human)
T2 peptide: TFEYVSQPFLMDLE

T3: SARS-CoV-2 spike (S) protein peptide on HLA-DPA1*01:03 / HLA-DPB1*04:01 (human)
T3 peptide: TFEYVSQPFLMDLE

B1: TCR4.1 (TCR)
alpha TRAV35 TRAJ42 CDR3: CAGMNYGGSQGNLIF
beta TRBV4-1 TRBJ1-2 CDR3: CASSQGVGYTF
B2: TCR6.3 (TCR)
alpha TRAV35 TRAJ42 CDR3: CAGMNYGGSQGNLIF
beta TRBV6-3 TRBJ1-2 CDR3: CASSYRGAYGYTF

Legend:
[1] = biological target: T1, SARS-CoV-2 spike (S) protein peptide on …; assay: activation reporter or marker
[2] = biological target: T2, SARS-CoV-2 spike (S) protein peptide on …; assay: multimer staining
[3] = biological target: T3, SARS-CoV-2 spike (S) protein peptide on …; assay: multimer staining

Row | Binder | binding result [1] | binding result [2] | binding result [3]
1 | B1 | recognises | recognises | recognises
2 | B2 | recognises |  | recognises
